Where “and” joins values, the source holds several entries; their conditions need not be identical. Equal values may be shown once.
Legend:
[1] = test system: S. epidermidis; assay: P128 MIC in CAMHB and serum; type: cell-based, Staphylococcus epidermidis
[2] = test system: S. epidermidis stationary phase cells; assay: P128 activity on stationary phase cells (CFU); type: cell-based, Staphylococcus epidermidis; settings: 10 μg/mL P128, 2 h
Text: Most in vitro studies examining the activity of antibiotics have been performed on rapidly dividing planktonic bacterial cultures supplemented with rich growth media. However, in infections, bacteria seldom encounter optimal conditions that allow logarithmic growth. It is likely that stationary-phase or non dividing bacteria are common in many persistent Staphylococcus infections such as endocarditis and osteomyelitis and in biofilm-associated infections (e.g., on catheters, grafts, and foreign bodies). Therefore, activity of P128 was determined on stationary phase cells of three S. aureus strains, three S. epidermidis, and two each of S. lugdunensis and S. haemolyticus strains. Briefly, the test cultures were grown overnight in LB (˜10^9 cells), centrifuged, pellet was washed and resuspended in saline. Optical density (OD600) was adjusted to 0.2 (˜10^8 CFU/mL). 100 μL of these cells were treated with 10 μg/mL P128 (in saline) and incubated at 37° C. for 2 h, 200 rpm, cell controls without proteins were maintained. Following incubation, the volume was made up to 1 mL with saline, serially log diluted in saline and plated on LB agar. Incubated at 37° C. for 18 h to enumerate residual CFU to determine cell killing.

[3] = test system: S. epidermidis; assay: MIC and checkerboard synergy (broth microdilution) on planktonic cells; type: cell-based, Staphylococcus epidermidis
Experimental: Bacterial cultures at a final cell number of 5×10^5 CFU/mL was added to wells of 96-well microtiter plates (precoated with 0.5% BSA), containing two-fold dilutions of P128 and the second drug in cation adjusted Mueller Hinton Broth (CAMHB). The plates were incubated at 37° C. for 24 h and the individual MICs and the combination MICs were read. The fractional inhibitory concentration index (FICI) was determined using the following equation: FICI=(MIC of drug A in the combination/MIC of drug A alone)+(MIC of drug B in the combination/MIC of drug B alone). The combination was considered to be synergistic when the FICI was ≤0.5; additive when FICI was 0.5-1.0; indifferent when FICI was 1-4 and antagonistic when FICI≥4.
S. epidermidis culture at a final cell number of 5×10^5 CFU/mL was added to wells of 96-well microtiter plates (precoated with 0.5% BSA), containing two-fold dilutions of P128 and either Daptomycin or Oxacillin in cation adjusted Mueller Hinton Broth (CAMHB). CAMHB was supplemented with 50 µg/mL Ca^++ for daptomycin assay. The plates were incubated at 37° C. for 24 h and the individual MICs and the combination MICs were read. The fractional inhibitory concentration index (FICI) was determined using the following equation: FICI=(MIC of drug A in the combination/MIC of drug A alone)+(MIC of drug B in the combination/MIC of drug B alone). The combination was considered to be synergistic when the FICI was ≤0.5; additive when FICI was between 0.5-1.0; indifferent when FICI was between 1-4 and antagonistic when FICI was ≥4. The experiments were performed in triplicate and repeated twice.

[4] = test system: S. aureus USA300; assay: Mouse model of S. aureus with mucin-enhanced virulence, survival; type: in vivo, BALB/c mice; settings: S. aureus USA300 10^9 CFU ip, P128 […] ip, Vancomycin 27.5 mg/kg sc 2 doses, or both
Experimental: Eight to nine weeks old female BALB/c mice were challenged intraperitoneally with 10^9 CFU of S. aureus USA300. At 2 hours post-infection, animals were treated with either P128 at 2.5 mg/kg intraperitoneally, or vancomycin at 27.5 mg/kg subcutaneously, or combination of both. Groups treated with only vancomycin or combination of P128 and vancomycin were administered with a second dose of vancomycin at 12 hours after the first treatment. At 72 hours post-infection, P128 and vancomycin yielded 56 and 44% survival, respectively.

B1: P128: anti-staphylococcal chimeric protein: phage tail associated muralytic enzyme (TAME) cell wall-degrading region plus staphylococcus-specific binding region; SEQ ID NO: 1 (protein)
chain: MSLDSLKKYNGKLPKHDPSFVQPGNRHYKYQCTWYAYNRRGQLGIPVPLWGDAADWIGGAKGAGYGVGRTPKQGACVIWQRGVQGGSPQYGHVAFVEKVLDGGKKIFISEHNYATPNGYGTRTIDMSSAIGKNAQFIYDKKLETPNTGWKTNKYGTLYKSESASFTPNTDIITRTTGPFRSMPQSGVLKAGQTIHYDEVMKQDGHVWVGYTGNSGQRIYLPVRTWNKSTNTLGVLWGTIK
modifications: P128 chimera
Fold reduction in serum MIC ([1]; S. epidermidis B9470): 32 fold
MIC of P128 in CAMHB ([1]; S. epidermidis B9470): 4 μg/ml and (0.14) μM
MIC of P128 in Serum ([1]; S. epidermidis B9470): 0.12 μg/ml and (0.004) μM
Fold reduction in serum MIC ([1]; S. epidermidis B9473): 4 fold
MIC of P128 in CAMHB ([1]; S. epidermidis B9473): 16 μg/ml and (0.58) μM
MIC of P128 in Serum ([1]; S. epidermidis B9473): 4 μg/ml and (0.14) μM
24 h P128 MIC for serum time-kill ([1]; S. epidermidis, fetal calf serum): 0.25 µg/mL
CFU/mL, P128 treated ([2]; S. epidermidis B9467 stationary phase): 3.7 × 10^2 CFU/mL
CFU/mL, P128 treated ([2]; S. epidermidis B9470 stationary phase): 1.5 × 10^2 CFU/mL
CFU/mL, P128 treated ([2]; S. epidermidis B9472 stationary phase): 7 × 10^1 CFU/mL
MIC (drug alone) ([3]; S. epidermidis ATCC 12228): 4 µg/mL
MIC (drug alone) ([3]; S. epidermidis B9467): 32 µg/mL
MIC (drug alone) ([3]; S. epidermidis B9468): 2 µg/mL
MIC (drug alone) ([3]; S. epidermidis B9470): 8 µg/mL
MIC (drug alone) ([3]; S. epidermidis B9472): 16 µg/mL and 8 µg/mL
MIC (drug alone) ([3]; S. epidermidis B9473): 16 µg/mL
MIC over the strains ([3]; S. epidermidis strains of Tables 7 and 8): 2 to 32 µg/mL
Survival at 72 h post infection [4]: 56%

Reference: patent US20190282673A1, “STAPHTAME ACTIVITY ON BIOFILMS” (priority 2016, published 2019)
